{"source": "patent US5591427A", "about": "“Human Interleukin-3(Il-3) variants and their use to promote or antagonize IL-3-mediated processes” (Medvet Science Pty. Ltd., priority 1979, dated 1997)", "key": {"[1]": {"target": "T1, IL-3 high affinity receptor of monocytes (Homo sapiens, UniProt P26951+P32927)", "T1 construct": "endogenous in cells; host or cells: freshly purified human peripheral blood monocytes", "T1 sequence (P26951 19-378)": "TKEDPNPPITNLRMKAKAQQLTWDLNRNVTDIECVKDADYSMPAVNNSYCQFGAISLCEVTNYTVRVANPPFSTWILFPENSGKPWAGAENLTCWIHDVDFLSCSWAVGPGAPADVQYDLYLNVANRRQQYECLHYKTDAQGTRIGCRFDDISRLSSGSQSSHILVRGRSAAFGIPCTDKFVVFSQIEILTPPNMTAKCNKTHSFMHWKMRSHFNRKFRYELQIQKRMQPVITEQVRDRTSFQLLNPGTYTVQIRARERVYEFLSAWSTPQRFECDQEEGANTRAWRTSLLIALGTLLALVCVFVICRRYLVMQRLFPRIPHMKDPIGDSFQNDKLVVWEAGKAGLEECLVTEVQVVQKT", "T1 sequence (P32927 17-897)": "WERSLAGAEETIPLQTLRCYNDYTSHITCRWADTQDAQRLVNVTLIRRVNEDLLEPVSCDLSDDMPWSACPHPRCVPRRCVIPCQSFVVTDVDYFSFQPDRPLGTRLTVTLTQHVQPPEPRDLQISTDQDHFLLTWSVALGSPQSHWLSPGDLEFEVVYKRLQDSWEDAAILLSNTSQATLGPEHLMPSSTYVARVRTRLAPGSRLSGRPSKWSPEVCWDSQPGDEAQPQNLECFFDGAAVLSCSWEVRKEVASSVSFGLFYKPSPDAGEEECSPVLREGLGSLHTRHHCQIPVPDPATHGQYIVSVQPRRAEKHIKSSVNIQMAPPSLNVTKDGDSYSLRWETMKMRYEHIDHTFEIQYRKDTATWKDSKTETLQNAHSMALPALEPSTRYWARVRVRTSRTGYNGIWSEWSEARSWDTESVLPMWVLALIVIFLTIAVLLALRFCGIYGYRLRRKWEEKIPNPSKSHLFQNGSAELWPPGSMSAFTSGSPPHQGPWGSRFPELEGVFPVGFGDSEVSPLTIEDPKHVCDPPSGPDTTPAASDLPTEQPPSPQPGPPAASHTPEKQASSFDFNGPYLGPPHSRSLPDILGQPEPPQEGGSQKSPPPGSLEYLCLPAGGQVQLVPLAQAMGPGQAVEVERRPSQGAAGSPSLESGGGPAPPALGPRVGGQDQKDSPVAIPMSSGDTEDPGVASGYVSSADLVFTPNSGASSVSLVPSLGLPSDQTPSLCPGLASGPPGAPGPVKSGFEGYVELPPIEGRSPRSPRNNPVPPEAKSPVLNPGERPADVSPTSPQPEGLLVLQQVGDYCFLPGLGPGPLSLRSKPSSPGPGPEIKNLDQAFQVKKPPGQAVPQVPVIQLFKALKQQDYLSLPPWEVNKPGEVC", "experiment": "Competition for 125I-IL-3 binding to the high affinity receptor of monocytes", "conditions": "FIG. 5, at the concentrations tested", "method": "(a) Radioiodination of hIL-3: rh IL-3 (gift from Dr. L. Park, Immunex Corporation, Seattle, Wash.) was radioiodinated by the ICI method as previously described (Contreras et. al., supra). Iodinated protein was separated from free ^125 I by chromatography on a Sephadex G-25 PD 10 column (Pharmacia, Uppsala, Sweden) equilibrated in phosphate-buffered saline (PBS) containing 0.02% Tween 20, and stored at 4° C. for up to 4 weeks. Before use, the iodinated protein was purified from Tween and nonprotein-associated radioactivity by cation exchange chromatography on a 0.3-ml CM-Sepharose CL-6B column (Pharmacia) and stored at 4° C. for up to 5 days.\n(b) Competition Binding assay. Freshly purified monocytes were suspended in binding medium consisting of RPMI 1640 supplemented with 20 mmol/L/HEPES and 0.5% bovine serum albumin (BSA). […] Cell suspensions were then overlaid on 0.2 mL FCS at 4° C. and centrifuged for 30 seconds at a maximum speed in a Beckman Microfugre 12. The tip of each tube was cut off above the visible cell pellet and counted in a Packard Auto-Gamma 5650 (Downer's Grove, Ill). The results are expressed as Percent competition where 100% is the competition observed in the presence of 100 fold excess native IL-3."}, "[2]": {"system": "monocytes", "experiment": "Stimulation of human monocyte adherence (51Cr adhesion assay)", "type": "cell-based", "conditions": "for stimulation of monocyte adherence: FIG. 3", "method": "(a) Monocyte purification. Monocytes were purified from the peripheral blood of normal donors, obtained from the Adelaide Red Cross Transfusion Service, as previously described (Elliott et. al., 1990, J. Immunol., 145, 167-171). In brief, mononuclear cells were prepared by centrifugation of whole blood on lymphoprep cushions (Nyegaard, Oslo, Norway) and washed twice in HBSS, 0.02% EDTA, 0.1% heat inactivated FCS (Flow Laboratories, North Ryde, Australia) and monocytes were purified in a Beckman J-6M/E elutriator using the Sanderson chamber, a flow rate of 12 ml/min and a constant rotor speed of 2050 rpm. Cells remaining in the chamber after 30 min were collected, washed twice in HBSS, and used immediately. Using these methods, monocyte purity as assessed by morphology and nonspecific-esterase staining was always >90% and usually >95%. The major contaminating cell types were lymphocytes and granulocytes (principally basophils).\n(b) Adhesion assay. Adhesion was measured by an isotopic method essentially as described (Elliott et. al., supra). In brief, purified monocytes (0.5 to 1×10^8) were resuspended in 1 ml RPMI 1640 with 0.1% FCS and antibiotics and incubated for 30 min at 37° C. with 500 μCi^51 Cr in the form of sodium chromate (Amersham International., Buckinghamshire, England). Cells were washed thrice in RPMI 1640 and resuspended in culture medium consisting of RPMI 1640, 10% FCS, antibiotics, and 0.2% sodium bicarbonate. For measurement of adhesion, 1 to 2.5×10^5 monocytes were aliquotted per well in 96-well microtitre plates (Nunc, Karnstrup, Denmark) together with stimuli or control medium to a total volume of […], and incubated for the indicated periods. […] At harvest, samples of supernatant were taken to assess spontaneous ^51 Cr release (usually <10% of cell-associated radioactivity), wells were washed three times with RPMI 1640 at 37° C., and residual adherent cells lysed in 10 mM Tris-hydrochloride, and 1% Nonident p40 detergent (Sigma). Lysates were transferred to tubes and counted in a Packard auto-gamma 5650. Percent adherence was calculated according to the formula: [formula]"}, "[3]": {"system": "chronic myeloid leukaemic (CML) cells", "experiment": "Proliferation of chronic myeloid leukaemic (CML) cells, [3H] thymidine incorporation", "type": "cell-based, human", "conditions": "for stimulation of CML cell proliferation: FIG. 2, FIG. 8", "method": "(b ) Proliferation of chronic myeloid leukaemic (CML) cells: Primarily CML cells from one patient were selected for their ability to incorporate [^3 H] thymidine in response to IL-3 as described (Lopez el. al., supra ). Briefly, CML cells were placed at 2×10^5 cells/mL fresh medium containing different concentrations of IL-3. Cells were incubated for 24 hours in a flat bottom 96-well NUNCLON plates (2×10^4 cells/well) before being pulsed with [^3 H] thymidine (0.5 μCi/well) for four more hours at 37° C. The cells were then harvested onto glass filters with a Titertek automated cell harvester and counted into a Beckman liquid scintillation counter. Data are expressed in cpm, and each point is the mean of six replicates."}, "[4]": {"system": "bone marrow progenitor cells", "experiment": "Colony assay: clonal proliferation and differentiation of bone marrow progenitor cells in semi-solid agar", "type": "cell-based", "conditions": "concentration of IL-3 mutant giving 50% of biological activity compared to that of wild type IL-3; mean ± SD", "method": "(a) Colony assay: this assay measured the clonal proliferation and differentiation of bone marrow progenitor cells in semi-solid agar and was carried out as described (Lopez et. al., 1985, Blood 72, 1797-1804). Briefly, low density, macrophage-depleted bone marrow cells were cultured at a concentration of 0.5 to 1×10^5 /mL in Iscove's modified Dulbecco's medium (IMDM, GIBCI, Grant Island, N.Y.), containing 0.33% agar (Difco, Detroit), 25% FCS (Commonwealth Serum Laboratories, Parkville, Victoria, Australia), and 20 μmol/LK2-mercaptoethanol. Different dilutions of IL-3- containing COS cell supernatants were added to each plate. Plates were prepared in triplicate and scored after incubation at 37° C. in 5% CO2 in a humid atmosphere for 14 days. Clones containing 40 cells were scored as colonies."}, "[5]": {"conditions": "concentration of IL-3 mutant giving 50% of biological activity compared to that of wild type IL-3"}}}
{"molecule": "M25: human IL-3 mutant with substitution of residues 21, 22 and 25 (protein, UniProt P08700 20-152, looked up, variant D21A E22L T25A) Interleukin-3: APMTQTTPLKTSWVNCSNMIALIIAHLKQPPLPLLDFNNLNGEDQDILMENNLRRPNLEAFNRAVKSLQNASAIESILKNLLPCLPLATAAPTRHPIHIKDGDWNEFRRKLTFYLKTLENAQAQQTTLSLAIF", "values": [{"measurement": "binding to high affinity IL-3 receptors of monocytes", "setting": "[1]", "result": "negative at binding"}, {"measurement": "stimulation of monocyte adherence", "setting": "[2]", "result": "lack of stimulation"}, {"measurement": "stimulation of CML cell proliferation", "setting": "[3]", "result": "lack of stimulation"}]}
{"molecule": "M6: human IL-3 mutant, amino acid 101 (Asp) replaced by Ala (protein, UniProt P08700 20-152, looked up, variant D101A) Interleukin-3: APMTQTTPLKTSWVNCSNMIDEIITHLKQPPLPLLDFNNLNGEDQDILMENNLRRPNLEAFNRAVKSLQNASAIESILKNLLPCLPLATAAPTRHPIHIKAGDWNEFRRKLTFYLKTLENAQAQQTTLSLAIF", "values": [{"measurement": "Relative biological activity, PROLIFERATION COLONIES", "setting": "[4]", "result": "104 ± 35"}, {"measurement": "stimulation of monocyte adherence", "setting": "[2]", "result": "more potent than the wild type IL-3"}, {"measurement": "Relative biological activity, MONOCYTE", "setting": "[2]; [5]", "result": "153 ± 48"}, {"measurement": "stimulation of CML cell proliferation", "setting": "[3]", "result": "more potent than the wild type IL-3"}, {"measurement": "Relative biological activity, PROLIFERATION CML", "setting": "[3]; [5]", "result": 205}]}
